# Test results taken from patent US6559282B1, “Artificial T helper cell epitopes as immune stimulators for synthetic peptide immunogens including immunogenic LHRH peptides” (United Biomedical, Inc., priority 1998, dated 2003).
# Marks after values point to notes of the source that are not given here.
# Experiments:
# [1] = target: T1, LHRH (Rattus norvegicus, UniProt P07490); assay: Serum testosterone RIA in rats immunized with LHRH peptide immunogens (immunocastration); type: in vivo, Sprague-Dawley rats, male; details: i.m., serum at weeks 10 or 12
# T1 construct: from tissue; host or cells: living male rats (in vivo, endogenous hormone)
# Experimental: B. Protocols for immunization. The LHRH peptide immunogens shown in Tables 2a and 2b were evaluated on groups of 5 to 10 rats as specified by the experimental immunization protocol outlined below and by serological assays for determination of immunogenicity on serum samples:
# Blood was collected and processed into serum, and stored prior to ELISA and radioimunoassay (RIA) for determination of serum testosterone values.
# D. Determination of immunogen efficacy. Immunogens were evaluated for efficacy by RIA for serum testosterone values. Serum testosterone levels were measured using an RIA kit from Diagnostic Products (Los Angeles, Calif.) according to manufacturer's instructions. The lower detection limit for testosterone ranged from 0.01 to 0.03 nmol/L. Each sample was analyzed in duplicate. Serum samples were scored as being at castration level when the testosterone level was below limits of detection and as “near castration” at <0.1 nmol/L. Results were verified by comparison to testosterone levels in serum from mechanically castrated rats.
# E. Results. […] The efficacy of the anti-peptide antibody responses, consequential to the cross-reactivity to natural LHRH, was established by determining serum testosterone levels. Those results are summarized in the right columns of Tables 2a and 2b as numbers of animals having castration level serum testosterone per total animals in the group.
# [2] = system: LHRH peptide (SEQ ID NO:77); assay: ELISA of immune rat sera on LHRH peptide-coated plates (immunogenicity); type: in vivo, Sprague-Dawley rats, male; details: 25 μg doses on Alum at 0 and 3 weeks; ELISA peptide SEQ ID NO: 28
# Experimental: C. Method for determination of immunogenicity. Antibody activities were determined by ELISA (enzyme-linked immunosorbent assays) using 96-well flat bottom microtiter plates which were coated with the LHRH peptide (SEQ ID NO:77) as immunosorbent. Aliquots (100 μL) of the peptide immunogen solution at a concentration of 5 μg/mL were incubated for 1 hour at 37° C. The plates were blocked by another incubation at 37° C. for 1 hour with a 3% gelatin/PBS solution. The blocked plates were then dried and used for the assay. Aliquots (100 μL) of the test immune sera, starting with a 1:100 dilution in a sample dilution buffer and ten-fold serial dilutions thereafter, were added to the peptide coated plates. The plates were incubated for 1 hour at 37° C.
# The plates were washed six times with 0.05% Tween® in PBS. 100 μL of horseradish peroxidase labeled goat-anti-rat IgG antibody was added at appropriate dilutions in conjugate dilution buffer (Phosphate buffer containing,0.5M NaCl, and normal goat serum). The plates were incubated for 1 hour at 37° C. before being washed as above. Aliquots (100 μL) of o-phenylenediamine substrate solution were then added. […] The A492 nm of the contents of each well was read in a plate reader. ELISA titers were calculated based on linear regression analysis of the absorbances, with cutoff A492 nm set at 0.5. […]
# [3] = system: artificial Th epitope; assay: ELISA of immune rat sera on the Th epitope peptide (antibody specificity); type: in vivo, rats; details: 25 μg doses on Alum at 0 and 3 weeks; sera diluted 1:100; ELISA on respective Th peptide
substance,measurement,setting,value
37 (DLSDLKGLLLHKLDGLGGEHWSYGLRPG) [compound 37],no. castrated (animals having castration level serum testosterone per total animals in the group),"[1]; 25 μg/dose, Alum (0,3 wpi)",0/6
32 (KKKIITITRIITIITTI) [compound 32],no. castrated (animals having castration level serum testosterone per total animals in the group),"[1]; 25 μg/dose, Alum (0,3 wpi)",1/6
48 (LTEMRTVIVTRMETVGGEHWSYGLRPG) [compound 48],no. castrated (animals having castration level serum testosterone per total animals in the group),"[1]; 25 μg/dose, Alum (0,3 wpi)",1/6
33 (KKKMMTMTRMITMITTID) [compound 33],no. castrated (animals having castration level serum testosterone per total animals in the group),"[1]; 25 μg/dose, Alum (0,3 wpi)",5/5
42 (MTEIRTVIVTRMETMGGEHWSYGLRPG) [compound 42],no. castrated (animals having castration level serum testosterone per total animals in the group),"[1]; 25 μg/dose, Alum (0,3 wpi)",6/6
43 (LSEIKGVIVHKLEGVGGEHWSYGLRPG) [compound 43],no. castrated (animals having castration level serum testosterone per total animals in the group),"[1]; 25 μg/dose, Alum (0,3 wpi)",14/14
same,no. castrated (animals having castration level serum testosterone per total animals in the group),"[1]; 100 μg/dose, IFA (0,3,6 wpi)",6/6
40 (DFSDFKGFFFHKFDGFGGEHWSYGLRPG) [compound 40],no. castrated (animals having castration level serum testosterone per total animals in the group),"[1]; 25 μg/dose, Alum (0,3 wpi)",4/8
54 (ISMTEIRTVIVTRMETMLFGGEHWSYGLRPG) [compound 54],no. castrated (animals having castration level serum testosterone per total animals in the group),"[1]; 25 μg/dose, Alum (0,3 wpi)",0/8
29 (KKKFFFFTKFFTFPVSFD) [compound 29],no. castrated (animals having castration level serum testosterone per total animals in the group),"[1]; 400 μg/dose, Alum (0,3,6 wpi)",5/5
same,no. castrated (animals having castration level serum testosterone per total animals in the group),"[1]; 400 μg/dose, IFA (0,3,6 wpi)",8/10
34 (FITMDTKFLLASTHIL) [compound 34],no. castrated (animals having castration level serum testosterone per total animals in the group),"[1]; 25 μg/dose, Alum (0,3 wpi)",1/8
same,no. castrated (animals having castration level serum testosterone per total animals in the group),"[1]; 100 μg/dose, IFA (0,3,6 wpi)",4/6
41 (ISEIKGVIVHKIEGIGGEHWSYGLRPG) [compound 41],no. castrated (animals having castration level serum testosterone per total animals in the group),"[1]; 25 μg/dose, Alum (0,3 wpi)",6/6
same,LHRH Reactivity: number of animals with anti-LHRH titers >1:1000/total animals immunized,[2],6/6
same,Th Reactivity: number of animals with anti-Th reactivity >0.100 A490/total animals immunized,[3],0/6^c
30 (KKKLFLLTKLLTLPFSLD) [compound 30],no. castrated (animals having castration level serum testosterone per total animals in the group),"[1]; 400 μg/dose, Alum (0,3,6 wpi)",2/5
same,no. castrated (animals having castration level serum testosterone per total animals in the group),"[1]; 400 μg/dose, IFA (0,3,6 wpi)",9/10
35 (KKKFITMDTKFLLASTHIL) [compound 35],no. castrated (animals having castration level serum testosterone per total animals in the group),"[1]; 25 μg/dose, Alum (0,3 wpi)",2/6
39 (DVSDVKGVVVHKVDGVGGEHWSYGLRPG) [compound 39],no. castrated (animals having castration level serum testosterone per total animals in the group),"[1]; 25 μg/dose, Alum (0,3 wpi)",3/6
47 (MSEIKGVIVHKLEGMGGEHWSYGLRPG) [compound 47],no. castrated (animals having castration level serum testosterone per total animals in the group),"[1]; 25 μg/dose, Alum (0,3 wpi)",2/6
38 (EISEIRGIIIHRIEGIGGEHWSYGLRPG) [compound 38],no. castrated (animals having castration level serum testosterone per total animals in the group),"[1]; 25 μg/dose, Alum (0,3 wpi)",5/6
